In patent EP1007561B1 one finds % INHIBITION AT 10 nM data, which are given here for 1 substance.

The target in this assay is opiate receptors of rat brain homogenate ([3H]-Naloxone binding sites, non-selective binding assay) (rat). Kind of assay: displacement of 1.0 nM [3H]-Naloxone from rat brain homogenate, filtration; compound at 10 nM.

With “CCI-H (20% HSA•MPA-AEA3-Dyn A 2-17-NH2) (from UniProt P02768 25-609)”, the % INHIBITION AT 10 nM came to 1.28%.
